The assay concerns the target T1, Very late antigen-4 (VLA-4; α4β1 integrin) on multiple myeloma cell lines (human, UniProt P13612 34-1032; P05556 21-798).
T1 construct: whole, on cells; also called VLA-4 receptor
The assay is described as follows: peptide screen of Example 1 (FITC-labeled peptides on MM cells, flow cytometry).

Where no end group is shown, it is not given here.

T1 sequence (P13612 34-1032, chain 1 of 2): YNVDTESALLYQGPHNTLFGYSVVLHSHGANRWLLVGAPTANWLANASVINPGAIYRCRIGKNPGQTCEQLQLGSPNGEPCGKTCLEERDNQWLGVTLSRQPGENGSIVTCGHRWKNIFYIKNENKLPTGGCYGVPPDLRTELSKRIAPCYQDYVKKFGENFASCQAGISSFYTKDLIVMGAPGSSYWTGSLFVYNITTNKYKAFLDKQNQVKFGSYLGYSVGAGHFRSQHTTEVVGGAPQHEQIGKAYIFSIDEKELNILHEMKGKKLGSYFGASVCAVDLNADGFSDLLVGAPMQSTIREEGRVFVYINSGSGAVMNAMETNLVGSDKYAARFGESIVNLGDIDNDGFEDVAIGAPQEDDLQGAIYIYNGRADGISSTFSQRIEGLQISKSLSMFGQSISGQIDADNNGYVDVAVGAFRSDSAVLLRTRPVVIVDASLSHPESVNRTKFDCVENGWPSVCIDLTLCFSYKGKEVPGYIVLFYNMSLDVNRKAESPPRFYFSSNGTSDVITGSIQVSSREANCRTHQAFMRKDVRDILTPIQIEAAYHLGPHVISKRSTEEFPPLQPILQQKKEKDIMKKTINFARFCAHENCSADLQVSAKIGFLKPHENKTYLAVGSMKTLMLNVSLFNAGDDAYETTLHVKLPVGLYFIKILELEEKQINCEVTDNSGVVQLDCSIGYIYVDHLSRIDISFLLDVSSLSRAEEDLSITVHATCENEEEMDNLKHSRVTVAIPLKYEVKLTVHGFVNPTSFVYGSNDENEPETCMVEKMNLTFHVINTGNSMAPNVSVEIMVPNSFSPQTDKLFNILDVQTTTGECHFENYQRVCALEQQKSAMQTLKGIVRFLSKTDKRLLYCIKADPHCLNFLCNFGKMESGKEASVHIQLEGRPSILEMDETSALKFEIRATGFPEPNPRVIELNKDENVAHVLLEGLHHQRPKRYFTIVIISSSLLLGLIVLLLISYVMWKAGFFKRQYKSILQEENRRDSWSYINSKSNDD
T1 sequence (P05556 21-798, chain 2 of 2): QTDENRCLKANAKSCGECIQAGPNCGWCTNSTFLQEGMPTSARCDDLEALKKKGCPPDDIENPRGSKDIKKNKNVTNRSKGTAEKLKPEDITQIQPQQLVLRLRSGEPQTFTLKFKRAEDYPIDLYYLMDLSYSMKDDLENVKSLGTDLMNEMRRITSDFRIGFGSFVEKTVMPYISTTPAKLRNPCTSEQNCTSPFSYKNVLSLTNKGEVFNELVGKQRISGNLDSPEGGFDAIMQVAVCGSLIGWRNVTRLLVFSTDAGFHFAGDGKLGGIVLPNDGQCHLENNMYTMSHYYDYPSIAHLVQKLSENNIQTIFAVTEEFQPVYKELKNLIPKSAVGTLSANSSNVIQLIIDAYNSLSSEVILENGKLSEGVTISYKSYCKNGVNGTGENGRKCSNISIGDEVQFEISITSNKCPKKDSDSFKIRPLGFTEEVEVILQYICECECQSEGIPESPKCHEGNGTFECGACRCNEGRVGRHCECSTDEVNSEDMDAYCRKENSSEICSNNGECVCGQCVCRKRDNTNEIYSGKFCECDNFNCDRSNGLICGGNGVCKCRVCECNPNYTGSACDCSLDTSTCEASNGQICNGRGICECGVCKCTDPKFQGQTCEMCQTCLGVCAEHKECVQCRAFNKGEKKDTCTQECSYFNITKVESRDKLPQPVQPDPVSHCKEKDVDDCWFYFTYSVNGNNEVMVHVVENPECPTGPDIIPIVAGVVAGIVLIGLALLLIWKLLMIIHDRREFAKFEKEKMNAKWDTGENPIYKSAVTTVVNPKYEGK

B1: peptide sequence CFLDFP (peptide)
peptide: CFLDFP
modifications: not fully specified (C-terminus); also: FITC-labelled version synthesized for binding assays
notes: The assay for this peptide is not described separately
For the molecule B1, the binding result is “binds”.

The values above are taken from patent US20180177810A1 (UNIVERSITY OF NOTRE DAME DU LAC, published 2018).
